From article PMC8789516, “Polyphenol oxidase and enzymatic browning in apricot (Prunus armeniaca L.): Effect on phenolic composition and deduction of main substrates” (Current Research in Food Science, 2022)

Columns and labels:
Settings in all cases: pH 7.0, 50 mM Tris-HCl, 25 °C, 2 mM SDS as activator of the latent enzyme
[1] = molecular target: T1, L-PaPPO (recombinant latent apricot polyphenol oxidase) (Prunus armeniaca, UniProt O81103, S149R/A376C/R416N/V417C)
T1 construct: gene PPO

purified protein [2] = substrate: NCCc1ccc(O)c(O)c1; assay: purified protein; format: biochemical, Prunus armeniaca
purified protein [3] = substrate: NCCc1ccc(O)cc1; assay: purified protein; format: biochemical, Prunus armeniaca

## O=C(/C=C/c1ccc(O)c(O)c1)O[C@@H]1C[C@@](O)(C(=O)O)C[C@@H](O)[C@@H]1O [Neochlorogenic acid]
[1]
  Km: 1470 ± 290 µM

## O=C(/C=C/c1ccc(O)c(O)c1)O[C@@H]1C[C@](O)(C(=O)O)C[C@@H](O)[C@H]1O [Chlorogenic acid]
[1]
  Km: 1520 ± 100 µM

B1: L-PaPPO (recombinant latent apricot polyphenol oxidase) (Prunus armeniaca; A376C/R416N/S149R/V417C) (protein)
chain: DPIAPPDLTTCKPAEITPGGSETVPCCPPVTTKIKTFKPDLSIPLRTRPAAHQVTDEYLAKFKKAQAAMRALPDDDPRSMVQQAKVHCAYCNGAYPQVGFTDNDIQVHFSWLFFPFHRMYLYFYERILGKLIDDPTFALPYWNWDSPVGFPIPDIYTDTSSPLYDQYRNADHQPPVLVDLSYGGKDDDVDEQTRIDENLAIMYRQMVSGAKTPDLFFGHAYRAGNLNTGKYPGTIENMPHNNIHIWVGDPSQTHQEDMGNFYSAGRDPLFYAHHCNVDRMWNIWKTLGGKRKDITDTDWLDAEFLFYDENAELVNCKVRDSLEPEKQLRYNYEPVSLPWLFTKPTARKTKNKTKAKVAATQLTSKFPATLVEVTTVEVARPKPRKRSKKEKVDEEELLIIKDIEFEGTEAVKFDVFINDDAESLSRRDKSEFAGSFVHVPQGKTTKAKTKTNLKLGITDLLEDLGAEDDSSVLVTLVPRVSNSPITIGGFKIEYSS
notes: latent form Asp102-Ser597 (active plus C-terminal domain), signal peptide removed; Gly-Pro-Met left after HRV 3C cleavage of GST; E. coli SHuffle T7; intron removed
Purified protein [2]
  Km: 1610 ± 160 µM
  kcat: 162 ± 3.3 s⁻¹
  kcat/Km: 99800 ± 2900 M⁻¹ s⁻¹
Purified protein [3]
  Km: 4480 ± 360 µM
  kcat: 1.42 ± 0.13 s⁻¹
  kcat/Km: 318 ± 29 M⁻¹ s⁻¹
